Experimental data reported in article PMC10709652, “The separation pin distinguishes the pro– and anti–recombinogenic functions of Saccharomyces cerevisiae Srs2” (Nature Communications, 2023).

B1: Srs2^898 (GFP-Srs2 1-898) (Saccharomyces cerevisiae S288C) (protein)
chain: MSSNNDLWLHLVSQLNTQQRAAALFDYTRGLQVIAGPGTGKTKVLTSRVAYLILHHHIHPRDIIVTTFTNKAANEMKERLQEMLRGAGVNISELLIGTFHSICLKILYRFGHLVDLQKDWRIIDEKEIDVILDDMIEKVPDQIRDYASSITRKVNLCMPSKNGDEWTIHPKLIKKQISKLKSNAILPEEYILDSNHDAALGYFYQIYQSELSKKNTLDFDDLLMYTFRLLTRVRVLSNIKHVLVDEFQDTNGIQLDLMFLFAKGNHHLSRGMTIVGDPDQSIYAFRNALAHNFLEMGRKCPIEYSTIILVENYRSSQKILNTSEILITQQNKGRQNRAPLRAQFDLDFPPVYMNFPAYFLEAPSLVRELLYLKALPNLFTFNDFAILVRQRRQIKRIESALIEHRIPYKIIRGHSFWDSKETRAMLNLLKLIFSPNDKHAILASLLYPARGLGPATGEKIKNALDTLATDVSCFQILKDISSKKIMLDIPTKGRSVIADFISMIENCQLLLQSTLLGGLSDLFDKLYELSGLKYEYLYKDGKKKNDQLEKSEPNLLNARHKNIELLKNYFLALLSKSESSDKEKNEAIKAATDEAEPIENKVITPKEYLRNFFNSLSLHSDAAEEEESESNKDAKIKREKNGFVTISTIHGAKGLEWPVVFIPGCEEGIIPCVFNDDKKDESEEDEEEDQENSKKDASPKKTRVLSVEDSIDEERRMFFVAQTRAKYLLYLSNTVTVEDVDRPRIASRFLTTDLIKAMSDSQKLFESTNSIKKLYRILNKKPPAEDDKLFSLDQLRKDYNQFIENRRERMIWQGIQMNDVYGIQLSRNKLLGSVSDFTSAADQLRLETQNSIFPQKKLIEKSRPSKINGNYAPKSRVKSPEKRYAPETTSFHSPTKKK
notes: residues 1-898 of 1174 (C-terminal 276 residues omitted), N-terminal GFP tag kept, pET15b, Talon purified; expressed in E. coli Rosetta2 (DE3)
B2: Srs2^898 (GFP-Srs2 1-898) (Saccharomyces cerevisiae S288C; N70A) (protein)
chain: MSSNNDLWLHLVSQLNTQQRAAALFDYTRGLQVIAGPGTGKTKVLTSRVAYLILHHHIHPRDIIVTTFTAKAANEMKERLQEMLRGAGVNISELLIGTFHSICLKILYRFGHLVDLQKDWRIIDEKEIDVILDDMIEKVPDQIRDYASSITRKVNLCMPSKNGDEWTIHPKLIKKQISKLKSNAILPEEYILDSNHDAALGYFYQIYQSELSKKNTLDFDDLLMYTFRLLTRVRVLSNIKHVLVDEFQDTNGIQLDLMFLFAKGNHHLSRGMTIVGDPDQSIYAFRNALAHNFLEMGRKCPIEYSTIILVENYRSSQKILNTSEILITQQNKGRQNRAPLRAQFDLDFPPVYMNFPAYFLEAPSLVRELLYLKALPNLFTFNDFAILVRQRRQIKRIESALIEHRIPYKIIRGHSFWDSKETRAMLNLLKLIFSPNDKHAILASLLYPARGLGPATGEKIKNALDTLATDVSCFQILKDISSKKIMLDIPTKGRSVIADFISMIENCQLLLQSTLLGGLSDLFDKLYELSGLKYEYLYKDGKKKNDQLEKSEPNLLNARHKNIELLKNYFLALLSKSESSDKEKNEAIKAATDEAEPIENKVITPKEYLRNFFNSLSLHSDAAEEEESESNKDAKIKREKNGFVTISTIHGAKGLEWPVVFIPGCEEGIIPCVFNDDKKDESEEDEEEDQENSKKDASPKKTRVLSVEDSIDEERRMFFVAQTRAKYLLYLSNTVTVEDVDRPRIASRFLTTDLIKAMSDSQKLFESTNSIKKLYRILNKKPPAEDDKLFSLDQLRKDYNQFIENRRERMIWQGIQMNDVYGIQLSRNKLLGSVSDFTSAADQLRLETQNSIFPQKKLIEKSRPSKINGNYAPKSRVKSPEKRYAPETTSFHSPTKKK
notes: as for B1
B3: Srs2^898 (GFP-Srs2 1-898) (Saccharomyces cerevisiae S288C; H100A) (protein)
chain: MSSNNDLWLHLVSQLNTQQRAAALFDYTRGLQVIAGPGTGKTKVLTSRVAYLILHHHIHPRDIIVTTFTNKAANEMKERLQEMLRGAGVNISELLIGTFASICLKILYRFGHLVDLQKDWRIIDEKEIDVILDDMIEKVPDQIRDYASSITRKVNLCMPSKNGDEWTIHPKLIKKQISKLKSNAILPEEYILDSNHDAALGYFYQIYQSELSKKNTLDFDDLLMYTFRLLTRVRVLSNIKHVLVDEFQDTNGIQLDLMFLFAKGNHHLSRGMTIVGDPDQSIYAFRNALAHNFLEMGRKCPIEYSTIILVENYRSSQKILNTSEILITQQNKGRQNRAPLRAQFDLDFPPVYMNFPAYFLEAPSLVRELLYLKALPNLFTFNDFAILVRQRRQIKRIESALIEHRIPYKIIRGHSFWDSKETRAMLNLLKLIFSPNDKHAILASLLYPARGLGPATGEKIKNALDTLATDVSCFQILKDISSKKIMLDIPTKGRSVIADFISMIENCQLLLQSTLLGGLSDLFDKLYELSGLKYEYLYKDGKKKNDQLEKSEPNLLNARHKNIELLKNYFLALLSKSESSDKEKNEAIKAATDEAEPIENKVITPKEYLRNFFNSLSLHSDAAEEEESESNKDAKIKREKNGFVTISTIHGAKGLEWPVVFIPGCEEGIIPCVFNDDKKDESEEDEEEDQENSKKDASPKKTRVLSVEDSIDEERRMFFVAQTRAKYLLYLSNTVTVEDVDRPRIASRFLTTDLIKAMSDSQKLFESTNSIKKLYRILNKKPPAEDDKLFSLDQLRKDYNQFIENRRERMIWQGIQMNDVYGIQLSRNKLLGSVSDFTSAADQLRLETQNSIFPQKKLIEKSRPSKINGNYAPKSRVKSPEKRYAPETTSFHSPTKKK
notes: as for B1
B4: Srs2^898 (GFP-Srs2 1-898) (Saccharomyces cerevisiae S288C; F219A) (protein)
chain: MSSNNDLWLHLVSQLNTQQRAAALFDYTRGLQVIAGPGTGKTKVLTSRVAYLILHHHIHPRDIIVTTFTNKAANEMKERLQEMLRGAGVNISELLIGTFHSICLKILYRFGHLVDLQKDWRIIDEKEIDVILDDMIEKVPDQIRDYASSITRKVNLCMPSKNGDEWTIHPKLIKKQISKLKSNAILPEEYILDSNHDAALGYFYQIYQSELSKKNTLDADDLLMYTFRLLTRVRVLSNIKHVLVDEFQDTNGIQLDLMFLFAKGNHHLSRGMTIVGDPDQSIYAFRNALAHNFLEMGRKCPIEYSTIILVENYRSSQKILNTSEILITQQNKGRQNRAPLRAQFDLDFPPVYMNFPAYFLEAPSLVRELLYLKALPNLFTFNDFAILVRQRRQIKRIESALIEHRIPYKIIRGHSFWDSKETRAMLNLLKLIFSPNDKHAILASLLYPARGLGPATGEKIKNALDTLATDVSCFQILKDISSKKIMLDIPTKGRSVIADFISMIENCQLLLQSTLLGGLSDLFDKLYELSGLKYEYLYKDGKKKNDQLEKSEPNLLNARHKNIELLKNYFLALLSKSESSDKEKNEAIKAATDEAEPIENKVITPKEYLRNFFNSLSLHSDAAEEEESESNKDAKIKREKNGFVTISTIHGAKGLEWPVVFIPGCEEGIIPCVFNDDKKDESEEDEEEDQENSKKDASPKKTRVLSVEDSIDEERRMFFVAQTRAKYLLYLSNTVTVEDVDRPRIASRFLTTDLIKAMSDSQKLFESTNSIKKLYRILNKKPPAEDDKLFSLDQLRKDYNQFIENRRERMIWQGIQMNDVYGIQLSRNKLLGSVSDFTSAADQLRLETQNSIFPQKKLIEKSRPSKINGNYAPKSRVKSPEKRYAPETTSFHSPTKKK
notes: as for B1
B5: Srs2^898 (GFP-Srs2 1-898) (Saccharomyces cerevisiae S288C; Y283A) (protein)
chain: MSSNNDLWLHLVSQLNTQQRAAALFDYTRGLQVIAGPGTGKTKVLTSRVAYLILHHHIHPRDIIVTTFTNKAANEMKERLQEMLRGAGVNISELLIGTFHSICLKILYRFGHLVDLQKDWRIIDEKEIDVILDDMIEKVPDQIRDYASSITRKVNLCMPSKNGDEWTIHPKLIKKQISKLKSNAILPEEYILDSNHDAALGYFYQIYQSELSKKNTLDFDDLLMYTFRLLTRVRVLSNIKHVLVDEFQDTNGIQLDLMFLFAKGNHHLSRGMTIVGDPDQSIAAFRNALAHNFLEMGRKCPIEYSTIILVENYRSSQKILNTSEILITQQNKGRQNRAPLRAQFDLDFPPVYMNFPAYFLEAPSLVRELLYLKALPNLFTFNDFAILVRQRRQIKRIESALIEHRIPYKIIRGHSFWDSKETRAMLNLLKLIFSPNDKHAILASLLYPARGLGPATGEKIKNALDTLATDVSCFQILKDISSKKIMLDIPTKGRSVIADFISMIENCQLLLQSTLLGGLSDLFDKLYELSGLKYEYLYKDGKKKNDQLEKSEPNLLNARHKNIELLKNYFLALLSKSESSDKEKNEAIKAATDEAEPIENKVITPKEYLRNFFNSLSLHSDAAEEEESESNKDAKIKREKNGFVTISTIHGAKGLEWPVVFIPGCEEGIIPCVFNDDKKDESEEDEEEDQENSKKDASPKKTRVLSVEDSIDEERRMFFVAQTRAKYLLYLSNTVTVEDVDRPRIASRFLTTDLIKAMSDSQKLFESTNSIKKLYRILNKKPPAEDDKLFSLDQLRKDYNQFIENRRERMIWQGIQMNDVYGIQLSRNKLLGSVSDFTSAADQLRLETQNSIFPQKKLIEKSRPSKINGNYAPKSRVKSPEKRYAPETTSFHSPTKKK
notes: as for B1
B6: Srs2^898 (GFP-Srs2 1-898) (Saccharomyces cerevisiae S288C; R389A) (protein)
chain: MSSNNDLWLHLVSQLNTQQRAAALFDYTRGLQVIAGPGTGKTKVLTSRVAYLILHHHIHPRDIIVTTFTNKAANEMKERLQEMLRGAGVNISELLIGTFHSICLKILYRFGHLVDLQKDWRIIDEKEIDVILDDMIEKVPDQIRDYASSITRKVNLCMPSKNGDEWTIHPKLIKKQISKLKSNAILPEEYILDSNHDAALGYFYQIYQSELSKKNTLDFDDLLMYTFRLLTRVRVLSNIKHVLVDEFQDTNGIQLDLMFLFAKGNHHLSRGMTIVGDPDQSIYAFRNALAHNFLEMGRKCPIEYSTIILVENYRSSQKILNTSEILITQQNKGRQNRAPLRAQFDLDFPPVYMNFPAYFLEAPSLVRELLYLKALPNLFTFNDFAILVAQRRQIKRIESALIEHRIPYKIIRGHSFWDSKETRAMLNLLKLIFSPNDKHAILASLLYPARGLGPATGEKIKNALDTLATDVSCFQILKDISSKKIMLDIPTKGRSVIADFISMIENCQLLLQSTLLGGLSDLFDKLYELSGLKYEYLYKDGKKKNDQLEKSEPNLLNARHKNIELLKNYFLALLSKSESSDKEKNEAIKAATDEAEPIENKVITPKEYLRNFFNSLSLHSDAAEEEESESNKDAKIKREKNGFVTISTIHGAKGLEWPVVFIPGCEEGIIPCVFNDDKKDESEEDEEEDQENSKKDASPKKTRVLSVEDSIDEERRMFFVAQTRAKYLLYLSNTVTVEDVDRPRIASRFLTTDLIKAMSDSQKLFESTNSIKKLYRILNKKPPAEDDKLFSLDQLRKDYNQFIENRRERMIWQGIQMNDVYGIQLSRNKLLGSVSDFTSAADQLRLETQNSIFPQKKLIEKSRPSKINGNYAPKSRVKSPEKRYAPETTSFHSPTKKK
notes: as for B1

Columns and labels:
[1] = substrate: Nc1ncnc2c1ncn2[C@@H]1O[C@H](COP(=O)(O)OP(=O)(O)OP(=O)(O)O)[C@@H](O)[C@H]1O; assay: ATP hydrolysis, gamma-32P-ATP, thin layer chromatography; assay type: biochemical, Saccharomyces cerevisiae; conditions: M13 ssDNA 2.5 µM (nucleotides), 2 mM MgCl2, 100 mM KCl, pH 7.6, 30 °C, 40 nM protein
[2] = substrate: Nc1ncnc2c1ncn2[C@@H]1O[C@H](COP(=O)(O)OP(=O)(O)OP(=O)(O)O)[C@@H](O)[C@H]1O; assay: as above; assay type: biochemical, Saccharomyces cerevisiae; conditions: M13 ssDNA 2.5 µM (nucleotides), 2 mM MgCl2, 100 mM KCl, pH 7.6, 30 °C, 40 nM protein; remark: listed apart in the source
Text: ATP hydrolysis, gamma-32P-ATP, thin layer chromatography on Srs2^898 (GFP-Srs2 1-898) | N70A, H100A, F219A, Y283A, R268A, and R389A mutant proteins were all moderately affected

Protein	Km [1] [µM]	kcat [1] [s⁻¹]	Km [2] [µM]	kcat [2] [sec–1]
B1	1580 ± 710	51 ± 8	–	–
B2	–	–	1320 ± 670	47 ± 7
B3	–	–	1330 ± 710	45 ± 8
B4	–	–	1510 ± 660	42 ± 6
B5	–	–	1520 ± 630	44 ± 6
B6	–	–	1600 ± 720	44 ± 7
